From PMC10786891, “Massively parallel profiling of RNA-targeting CRISPR-Cas13d”

T1: EsCas13d, nuclease-dead (Eubacterium siraeum, UniProt B0MS50, R295A;H300A;R849A;H854A)
T1 sequence: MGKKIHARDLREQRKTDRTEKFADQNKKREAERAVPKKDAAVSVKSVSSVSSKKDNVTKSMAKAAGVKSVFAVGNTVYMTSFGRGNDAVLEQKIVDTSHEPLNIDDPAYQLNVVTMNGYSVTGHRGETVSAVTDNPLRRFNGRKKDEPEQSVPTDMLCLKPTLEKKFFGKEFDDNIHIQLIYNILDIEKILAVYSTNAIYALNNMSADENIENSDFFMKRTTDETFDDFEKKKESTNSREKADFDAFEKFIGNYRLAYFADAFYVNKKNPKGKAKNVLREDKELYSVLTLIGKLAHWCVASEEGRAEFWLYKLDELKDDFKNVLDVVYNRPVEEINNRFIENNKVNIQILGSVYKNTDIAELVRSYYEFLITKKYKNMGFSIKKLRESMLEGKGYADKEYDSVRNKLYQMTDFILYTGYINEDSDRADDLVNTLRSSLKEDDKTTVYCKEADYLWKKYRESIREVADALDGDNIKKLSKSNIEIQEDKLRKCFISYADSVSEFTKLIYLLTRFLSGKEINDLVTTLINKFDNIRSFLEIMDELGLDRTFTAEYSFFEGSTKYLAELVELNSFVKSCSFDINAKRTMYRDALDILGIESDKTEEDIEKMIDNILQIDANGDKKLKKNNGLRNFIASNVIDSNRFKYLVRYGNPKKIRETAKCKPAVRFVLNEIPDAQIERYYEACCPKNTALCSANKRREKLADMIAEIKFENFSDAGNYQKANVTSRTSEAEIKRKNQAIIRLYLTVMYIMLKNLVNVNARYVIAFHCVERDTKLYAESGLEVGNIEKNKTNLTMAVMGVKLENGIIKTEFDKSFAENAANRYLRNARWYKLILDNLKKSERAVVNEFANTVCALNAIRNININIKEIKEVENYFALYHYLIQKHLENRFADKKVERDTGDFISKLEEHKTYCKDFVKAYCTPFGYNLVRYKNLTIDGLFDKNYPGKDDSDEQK


Molecular target: T1, EsCas13d, nuclease-dead
Test: crRNA (strand 1, pre-loaded); Mg2+; 40 mM Tris-HCl pH 7.5, 150 mM NaCl, 6 mM MgCl2, 1 mM DTT, 0.1% Tween-20, 0.2 mg/ml BSA; 25 C; 10 min per concentration, then washed
Conditions: tags: His6-TwinStrep-SUMO cleaved; N-terminal SNAP kept (SNAP-Surface 488); label: 3' end held by stalled T7 RNA polymerase

| Binder | Kd |
| --- | --- |
| target 1 C21A,C22U (mixed) RNA 1: CACCCGUGCAAAAAUGCAGGGGUCUAAAACUGAGCGGAUAACCUCUCUAUGG RNA 2: GGGAAUGGAUCCACAUCUACGAAUUCGUAUAAUAGAGAGGUUAUCCGCUCACCGAGAUCGGAAGAGCACACGU | 45 ± 7 nM |
| target 1 G12U,A18U (mixed) RNA 1: CACCCGUGCAAAAAUGCAGGGGUCUAAAACUGAGCGGAUAACCUCUCUAUGG RNA 2: GGGAAUGGAUCCACAUCUACGAAUUCGUACCAUUGAGAGUUUAUCCGCUCACCGAGAUCGGAAGAGCACACGU | 44 ± 10 nM |
| target 1 U3A,U11C (mixed) RNA 1: CACCCGUGCAAAAAUGCAGGGGUCUAAAACUGAGCGGAUAACCUCUCUAUGG RNA 2: GGGAAUGGAUCCACAUCUACGAAUUCGUACCAUAGAGAGGCUAUCCGCACACCGAGAUCGGAAGAGCACACGU | 10.3 ± 1.2 nM |
| target 3 G3U,U8C (mixed) RNA 1: CACCCGUGCAAAAUUGCAGGGGUCUAAAACGACCUGAAUAUUUCAGAUCAAA RNA 2: GGGAAUGGAUCCACAUCUACGAAUUCGUUUUUGAUCUGAAAUACUCAGUUCUGCAGAUCGGAAGAGCACACGU | 103 ± 17.5 nM |
| target 3 insU 3' of 22,insU 3' of 6 (mixed) RNA 1: CACCCGUGCAAAAUUGCAGGGGUCUAAAACGACCUGAAUAUUUCAGAUCAAA RNA 2: GGGAAUGGAUCCACAUCUACGAAUUCGUUUUUUGAUCUGAAAUAUUCUAGGUCUGCAGAUCGGAAGAGCACACGU | 27.5 ± 3.7 nM |
| target 3 insU 3' of 13,insA 3' of 6 (mixed) RNA 1: CACCCGUGCAAAAUUGCAGGGGUCUAAAACGACCUGAAUAUUUCAGAUCAAA RNA 2: GGGAAUGGAUCCACAUCUACGAAUUCGUUUUUGAUCUGAUAAUAUUCAAGGUCUGCAGAUCGGAAGAGCACACGU | 99 ± 25 nM |
| target 3 U2C,G4C (mixed) RNA 1: CACCCGUGCAAAAUUGCAGGGGUCUAAAACGACCUGAAUAUUUCAGAUCAAA RNA 2: GGGAAUGGAUCCACAUCUACGAAUUCGUUUUUGAUCUGAAAUAUUCACGCCUGCAGAUCGGAAGAGCACACGU | 18.4 ± 2.75 nM |
| target 3 G4U,A12U (mixed) RNA 1: CACCCGUGCAAAAUUGCAGGGGUCUAAAACGACCUGAAUAUUUCAGAUCAAA RNA 2: GGGAAUGGAUCCACAUCUACGAAUUCGUUUUUGAUCUGAUAUAUUCAUGUCUGCAGAUCGGAAGAGCACACGU | 52 ± 13.5 nM |
| target 3 insU 3' of 11,insG 3' of 5 (mixed) RNA 1: CACCCGUGCAAAAUUGCAGGGGUCUAAAACGACCUGAAUAUUUCAGAUCAAA RNA 2: GGGAAUGGAUCCACAUCUACGAAUUCGUUUUUGAUCUGAAAUUAUUCAGGGUCUGCAGAUCGGAAGAGCACACGU | 104 ± 29 nM |
| target 3 insC 3' of 7,insU 3' of 3 (mixed) RNA 1: CACCCGUGCAAAAUUGCAGGGGUCUAAAACGACCUGAAUAUUUCAGAUCAAA RNA 2: GGGAAUGGAUCCACAUCUACGAAUUCGUUUUUGAUCUGAAAUAUUCCAGGUUCUGCAGAUCGGAAGAGCACACGU | 49.5 ± 10 nM |
| target 3 A5U,U22C (mixed) RNA 1: CACCCGUGCAAAAUUGCAGGGGUCUAAAACGACCUGAAUAUUUCAGAUCAAA RNA 2: GGGAAUGGAUCCACAUCUACGAAUUCGUUCUUGAUCUGAAAUAUUCUGGUCUGCAGAUCGGAAGAGCACACGU | 70.5 ± 20 nM |
| target 3 insU 3' of 5,insA 3' of 4 (mixed) RNA 1: CACCCGUGCAAAAUUGCAGGGGUCUAAAACGACCUGAAUAUUUCAGAUCAAA RNA 2: GGGAAUGGAUCCACAUCUACGAAUUCGUUUUUGAUCUGAAAUAUUCAUGAGUCUGCAGAUCGGAAGAGCACACGU | 9.9 ± 1.8 nM |
| target 3 insA 3' of 22,insU 3' of 5 (mixed) RNA 1: CACCCGUGCAAAAUUGCAGGGGUCUAAAACGACCUGAAUAUUUCAGAUCAAA RNA 2: GGGAAUGGAUCCACAUCUACGAAUUCGUUUAUUGAUCUGAAAUAUUCAUGGUCUGCAGAUCGGAAGAGCACACGU | 11.1 ± 1.15 nM |
| target 3 insU 3' of 16,insG 3' of 2 (mixed) RNA 1: CACCCGUGCAAAAUUGCAGGGGUCUAAAACGACCUGAAUAUUUCAGAUCAAA RNA 2: GGGAAUGGAUCCACAUCUACGAAUUCGUUUUUGAUCUUGAAAUAUUCAGGUGCUGCAGAUCGGAAGAGCACACGU | 16.1 ± 1.9 nM |
| target 3 C1U,U7C (mixed) RNA 1: CACCCGUGCAAAAUUGCAGGGGUCUAAAACGACCUGAAUAUUUCAGAUCAAA RNA 2: GGGAAUGGAUCCACAUCUACGAAUUCGUUUUUGAUCUGAAAUAUCCAGGUUUGCAGAUCGGAAGAGCACACGU | 58.5 ± 16 nM |
| target 3 A5G,U8A (mixed) RNA 1: CACCCGUGCAAAAUUGCAGGGGUCUAAAACGACCUGAAUAUUUCAGAUCAAA RNA 2: GGGAAUGGAUCCACAUCUACGAAUUCGUUUUUGAUCUGAAAUAAUCGGGUCUGCAGAUCGGAAGAGCACACGU | 80.5 ± 15 nM |
| target 3 del3,del4 (mixed) RNA 1: CACCCGUGCAAAAUUGCAGGGGUCUAAAACGACCUGAAUAUUUCAGAUCAAA RNA 2: GGGAAUGGAUCCACAUCUACGAAUUCGUUUUUGAUCUGAAAUAUUCAUCUGCAGAUCGGAAGAGCACACGU | 13.9 ± 1.4 nM |
| target 3 G4A,A9G (mixed) RNA 1: CACCCGUGCAAAAUUGCAGGGGUCUAAAACGACCUGAAUAUUUCAGAUCAAA RNA 2: GGGAAUGGAUCCACAUCUACGAAUUCGUUUUUGAUCUGAAAUGUUCAAGUCUGCAGAUCGGAAGAGCACACGU | 52.5 ± 7 nM |
| target 3 C1A,U7C (mixed) RNA 1: CACCCGUGCAAAAUUGCAGGGGUCUAAAACGACCUGAAUAUUUCAGAUCAAA RNA 2: GGGAAUGGAUCCACAUCUACGAAUUCGUUUUUGAUCUGAAAUAUCCAGGUAUGCAGAUCGGAAGAGCACACGU | 100 ± 40 nM |
| target 3 insU 3' of 6,insA 3' of 3 (mixed) RNA 1: CACCCGUGCAAAAUUGCAGGGGUCUAAAACGACCUGAAUAUUUCAGAUCAAA RNA 2: GGGAAUGGAUCCACAUCUACGAAUUCGUUUUUGAUCUGAAAUAUUCUAGGAUCUGCAGAUCGGAAGAGCACACGU | 11.2 ± 1.3 nM |
| target 3 U2C,U8G (mixed) RNA 1: CACCCGUGCAAAAUUGCAGGGGUCUAAAACGACCUGAAUAUUUCAGAUCAAA RNA 2: GGGAAUGGAUCCACAUCUACGAAUUCGUUUUUGAUCUGAAAUAGUCAGGCCUGCAGAUCGGAAGAGCACACGU | 95.5 ± 20.5 nM |
| target 3 insA 3' of 15,insC 3' of 11 (mixed) RNA 1: CACCCGUGCAAAAUUGCAGGGGUCUAAAACGACCUGAAUAUUUCAGAUCAAA RNA 2: GGGAAUGGAUCCACAUCUACGAAUUCGUUUUUGAUCUAGAAACUAUUCAGGUCUGCAGAUCGGAAGAGCACACGU | ~90 nM |
| target 3 A5C,U22C (mixed) RNA 1: CACCCGUGCAAAAUUGCAGGGGUCUAAAACGACCUGAAUAUUUCAGAUCAAA RNA 2: GGGAAUGGAUCCACAUCUACGAAUUCGUUCUUGAUCUGAAAUAUUCCGGUCUGCAGAUCGGAAGAGCACACGU | 84 ± 31 nM |
| target 3 U7C (mixed) RNA 1: CACCCGUGCAAAAUUGCAGGGGUCUAAAACGACCUGAAUAUUUCAGAUCAAA RNA 2: GGGAAUGGAUCCACAUCUACGAAUUCGUUUUUGAUCUGAAAUAUCCAGGUCUGCAGAUCGGAAGAGCACACGU | 56 ± 7 nM |
